These results are taken from KR20220139244A (dated 2022).

Where two headings read alike, the source gives them in different places.

Assay in all cases: cell-based or functional assay
Experiment [1] has as its target T1, SARS-CoV-2 spike D614 (pseudovirus) (SARS-CoV-2, UniProt P0DTC2 14-1273).
The target in experiment [2] is T1, SARS-CoV-2 spike D614 (pseudovirus). This is another data set of the same source.
For experiment [3] the target is unchanged. The source holds these as a separate data set.
Experiment [4] shares this target. The source holds these as a separate data set.
Experiment [5] has the same target. The source holds these as a separate data set.

B1: No. 32 antibody (Full IgG; Table 3/4 numbering) (antibody, V domains shown)
VH: EVQLVQSGGGLIQPGGSLRLSCAASEFIVSSNYMTWVRQAPGKGLEWVSIIYPGGSTYYADSVKGRFTISRDNSKNTLYLRMNSLRAEDTAVYYCARDLPLTGTTLDYWGQGTLVTVSS
VL: not shown
For the molecule B1, the IC50 in experiment [1] and in experiment [2] was 4.34 ng/mL in each case.

B2: No. 139 antibody (Full IgG) (antibody, V domains shown)
VH: QITLKESGPTLVKPTQTLTLTCSFSGFSLSTSGVGVGWIRQPPGKALEWLALIDWDDNKYHTTSLKTRLTISKDTSKNQVVLTMTNMDPVDTATYYCARIPGFLRYRNRYYYYGMDVWGQGTTVTVSS
VL: ELVLTQPPSVSAAPGQKVTISCSGSSSNIGNNYVSWYQQLPGTAPKLLIYDNNKRPSGIPDRFSGSKSGTSATLGITGLQTGDEADYYCGTWDSSLSAGVFGGGTELTVL
Turning to B2, the IC50 in experiment [3] was found to be 0.378 ng/mL; in experiment [4] it was 0.35 ng/mL; in experiment [2] it was 0.535 ng/mL; in experiment [5] it was 0.535 ng/mL.
